The results in this text go back to publication PMC7171158.

This experiment concerns the target NusA-AR2^D443C labeled with fluorescein-5-maleimide (E. coli) (UniProt P0AFF6). Nature of the experiment: fluorescence polarisation; fluorescence anisotropy; 25 nM fluorescein-labeled NusA-AR2^D443C with increasing unlabeled protein; 25 °C; 50 mM Na-P pH 6.5, 100 mM NaCl, 150 mM glucose, 5 mM DTT, 0.05% Tween; two-state binding model. Background: Polarisation of emitted light reports the rotation of a fluorescent probe.

By Kd is commonly meant a measure of binding affinity in units of concentration. High values mean lower affinity, low ones higher affinity. For the substance “C-terminal domain of the RNA polymerase α subunit (αCTD) (domain or fragment)”, the Kd is 8 µM.
